In series [1] the target is T1, MAX (Homo sapiens, UniProt P61244 1-160). Briefly: MITOMI.
Series [2] has as its target T2, Pho4 (S. cerevisiae, UniProt P07270 1-312).
T2 sequence: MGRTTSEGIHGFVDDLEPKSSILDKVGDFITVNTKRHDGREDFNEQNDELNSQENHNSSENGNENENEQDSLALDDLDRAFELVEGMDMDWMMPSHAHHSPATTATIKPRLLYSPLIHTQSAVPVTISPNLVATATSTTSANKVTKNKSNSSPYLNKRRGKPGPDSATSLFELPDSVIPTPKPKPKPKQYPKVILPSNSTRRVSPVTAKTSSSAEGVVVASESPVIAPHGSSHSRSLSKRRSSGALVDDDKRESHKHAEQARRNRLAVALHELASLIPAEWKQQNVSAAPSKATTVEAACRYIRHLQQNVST
Briefly: MITOMI.

The target of series [3] is T1, MAX. Briefly: MITOMI. This is another data set of the same source.
Series [4] deals with T2, Pho4. Description: STAMMP.

Where two headings read alike, the source gives them in different places.

T1 sequence (P61244 whole entry): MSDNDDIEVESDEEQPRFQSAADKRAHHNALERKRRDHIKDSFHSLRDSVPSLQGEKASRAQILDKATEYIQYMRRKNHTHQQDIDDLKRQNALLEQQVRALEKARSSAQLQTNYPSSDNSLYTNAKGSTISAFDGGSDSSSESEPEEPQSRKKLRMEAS

B1: ATGC/ATGC 60bp (dsDNA)
DNA 1: CGCATGCATGCATGCATGCATGCATGCATGCATGCATGCATGCATGCATGCATGCATGCATGCGTCACGTGACGCATGCATGCATGCATGCATGCATGCATGCATGCATGCATGCATGCATGCATGCATGCATCGTCCGGCGGTATGAC
DNA 2: GTCATACCGCCGGACGATGCATGCATGCATGCATGCATGCATGCATGCATGCATGCATGCATGCATGCATGCATGCGTCACGTGACGCATGCATGCATGCATGCATGCATGCATGCATGCATGCATGCATGCATGCATGCATGCATGCG
With B1, the binding result with MAX [1] and with Pho4 [2] was “binds” each time.

B2: GT/AC 15bp (dsDNA)
DNA 1: CGCCCCAGCACTGCCAAGCCGACGTTAAAACGGGTTGCTTCATCAATCTGTGTGTGTGTGTGTGTCACGTGACACACACACACACACATATCGGCACTTGCGCTTGAGTGCATCGAATAGTTCGGTTTATGAGCGTCCGGCGGTATGAC
DNA 2: GTCATACCGCCGGACGCTCATAAACCGAACTATTCGATGCACTCAAGCGCAAGTGCCGATATGTGTGTGTGTGTGTGTCACGTGACACACACACACACACAGATTGATGAAGCAACCCGTTTTAACGTCGGCTTGGCAGTGCTGGGGCG
For the molecule B2, in the series with MAX [3], the binding result is on record as “binds”.

B3: Motif + random 1 (dsDNA)
DNA 1: CGCACAGTCACTTAACGTCACGTGACCGGGGTATTTCAGGTCCGGCGGTATGAC
DNA 2: GTCATACCGCCGGACCTGAAATACCCCGGTCACGTGACGTTAAGTGACTGTGCG
As to B3, the binding result in the series with Pho4 [4] is recorded as “binds”.

The values above are taken from publication doi:10.1101/2022.05.24.493321.
